In patent US20070178491, “Compositions and Methods for Synthesizing Nucleic Acids” (INVITROGEN CORPORATION, published 2007):

T1: AccuPrime protein (AccuPrime Protein I; MjaSSB, Mja RPA SSB) (Methanococcus jannaschii, UniProt Q58559 Q58559:1-645)
T1 sequence: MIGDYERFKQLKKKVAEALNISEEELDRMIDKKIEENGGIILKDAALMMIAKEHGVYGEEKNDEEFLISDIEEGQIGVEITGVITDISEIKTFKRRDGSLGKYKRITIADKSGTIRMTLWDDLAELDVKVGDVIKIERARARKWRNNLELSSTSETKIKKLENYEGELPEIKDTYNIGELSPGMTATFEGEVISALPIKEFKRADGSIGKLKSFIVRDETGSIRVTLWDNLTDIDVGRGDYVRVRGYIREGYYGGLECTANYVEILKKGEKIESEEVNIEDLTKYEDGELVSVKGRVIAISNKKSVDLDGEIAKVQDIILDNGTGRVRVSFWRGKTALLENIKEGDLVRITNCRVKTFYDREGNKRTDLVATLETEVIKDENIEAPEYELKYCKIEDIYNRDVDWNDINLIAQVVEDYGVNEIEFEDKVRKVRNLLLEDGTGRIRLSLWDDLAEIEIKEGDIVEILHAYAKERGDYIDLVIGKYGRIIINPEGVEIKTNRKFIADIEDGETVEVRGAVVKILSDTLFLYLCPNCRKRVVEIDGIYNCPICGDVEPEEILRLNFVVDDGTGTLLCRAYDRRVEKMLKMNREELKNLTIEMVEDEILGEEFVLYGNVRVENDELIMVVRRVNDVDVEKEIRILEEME

B1: KP_PALIN_cont (ssDNA)
DNA: CTCCTGGATCGACTTCAGTCCGCTGATGATTAGATGTCGTCCTGGATCGACTTCACTCCGCACCCGCTACCAACAACAGTACCC

Legend:
[1] = test system: AccuPrime Protein II (SsoSSB) (Sulfolobus solfataricus); settings: CITED Haseltine and Kowalczykowski 2002; about 3 orders of magnitude higher than AccuPrime protein I; cited from earlier work
[2] = biological target: T1, AccuPrime protein (AccuPrime Protein I; …); assay: EMSA; 20 nM oligo, 0-40 nM protein; near-stoichiometric shift, super-shift, weak negative cooperativity; 20 mM Tris-HCl pH 8.4, 50 mM KCl, 1.5 mM MgCl2, 70 C; text calls it 84-mer or 86-mer; settings: tags: expressed in E. coli BL21(DE3), Ni-NTA purified; label: 5'-32P
Procedure: Single stranded DNA binding. AccuPrime protein affinity for secondary structure of the single stranded DNA was tested with the 84 mer synthetic oligonucleotide KP_PALIN_cont: 5′-CTCCTGGATCGACTTCAGTCCGCTGATGATTAGATGTCGTCCTGGATCGACTTCACTCCGCACCCGCTACCAACAACAGTACCC-3′. The oligonucleotide was radiolabeled at the 5′ end in the same manner as the 5′ (ss) substrate for the exo-nuclease activity assay above with the oligonucleotide concentration at 5 μM.
Single stranded DNA binding. The binding affinity of AccuPrime protein to single stranded DNA (ssDNA) was measured using electrophoretic mobility shift assay (EMSA) on 6% horizontal polyacrylamide gel in TBE. The ssDNA molecules used in the assay were synthetic 86-mer oligonucleotides. The 5′ radiolabeled oligonucleotides were incubated with increasing amounts of the protein in 1×PCR buffer (20 mM Tris-HCl, pH 8.4, 50 mM KCl, 1.5 mM MgCl₂) at 70° C. for 5 min, and an aliquot of the reaction mix was loaded on the gel with currents on. The electrophoresis was continued for 1 hr and the gel was autoradiographed after dried.

| Molecule | Kd [1] [nM] | binding result [2] |
| --- | --- | --- |
| single-stranded DNA (unspecified) | 500 |  |
| B1 |  | binds |
